Experimental data as given in patent US20120077957A1, “Lactam-Bridged Melanocortin Receptor-Specific Peptides” (PALATIN TECHNOLOGIES, INC., priority 2009, published 2012).
Bridge positions count the residues as written; N and C are the ends. Square brackets hold non-standard residues; d marks the D form. Orn = NCCC[C@H](N)C(=O)O; Dab = NCC[C@H](N)C(=O)O

B1: Asp...Lys analog of peptide No. 18: Ac-Arg-cyclo(Asp-Dab(Acetyl)-D-Phe-Arg-Trp-Lys)-NH2 (peptide)
peptide: Ac-RD[Dab](Ac)[dF]RWK-NH2
modifications: lactam 2-7
SMILES: CC(=O)NCC[C@@H]1NC(=O)[C@@H](NC(=O)[C@H](CCCNC(=N)N)NC(C)=O)CC(=O)NCCCC[C@@H](C(N)=O)NC(=O)[C@H](Cc2c[nH]c3ccccc23)NC(=O)[C@H](CCCNC(=N)N)NC(=O)[C@@H](Cc2ccccc2)NC1=O

Target: human melanocortin-4 receptor (recombinant hMC4-R) (human), P32245
Sequence (P32245 whole entry): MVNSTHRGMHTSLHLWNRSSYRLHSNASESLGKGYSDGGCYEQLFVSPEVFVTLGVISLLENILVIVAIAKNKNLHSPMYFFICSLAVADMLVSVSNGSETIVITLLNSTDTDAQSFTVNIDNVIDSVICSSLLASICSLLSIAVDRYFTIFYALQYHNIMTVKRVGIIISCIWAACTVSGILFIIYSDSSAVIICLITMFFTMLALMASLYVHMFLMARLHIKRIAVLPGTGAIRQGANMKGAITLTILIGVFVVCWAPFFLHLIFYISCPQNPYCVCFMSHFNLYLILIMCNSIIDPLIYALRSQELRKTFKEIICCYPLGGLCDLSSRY
Assay: competition with labelled NDP-α-MSH ([I125] or Eu), hMC4-R HEK-293 membranes
Conditions: remark: other sources report otherwise

Ki [nM]	Binder
573	Ac-RD[Orn](Ac)[dF]RWK-NH2 (lactam 2-7) [Asp...Lys analog of peptide No. 33: Ac-Arg-cyclo(Asp-Orn(Acetyl)-D-Phe-Arg-Trp-Lys)-NH2]
33	B1
56	Ac-RD[Dab][dF]RWK-OH (lactam 2-7) [Asp...Lys analog of peptides No. 5 and No. 42: Ac-Arg-cyclo(Asp-Dab-D-Phe-Arg-Trp-Lys)-OH]
7	Ac-RD[Orn][dF]RWK-NH2 (lactam 2-7) [Asp...Lys analog of peptide No. 8: Ac-Arg-cyclo(Asp-Orn-D-Phe-Arg-Trp-Lys)-NH2]
18	Ac-RD[Orn][dF]RWK-OH (lactam 2-7) [Asp...Lys analog of peptide No. 7: Ac-Arg-cyclo(Asp-Orn-D-Phe-Arg-Trp-Lys)-OH]
4	Ac-RD[Dab][dF]RWK-NH2 (lactam 2-7) [Asp...Lys analog of peptides No. 6 and No. 43: Ac-Arg-cyclo(Asp-Dab-D-Phe-Arg-Trp-Lys)-NH2]
